Target: T1, EBOV sGP (Mayinga) (Zaire ebolavirus, Mayinga, GenBank …, UniProt P60170)
T1 construct: source: FreeStyle-293-F, transiently transfected, purified (Strep-Tactin, SEC)
Experiment: ELISA
Conditions: both partners purified

T1 sequence (P60170 33-314): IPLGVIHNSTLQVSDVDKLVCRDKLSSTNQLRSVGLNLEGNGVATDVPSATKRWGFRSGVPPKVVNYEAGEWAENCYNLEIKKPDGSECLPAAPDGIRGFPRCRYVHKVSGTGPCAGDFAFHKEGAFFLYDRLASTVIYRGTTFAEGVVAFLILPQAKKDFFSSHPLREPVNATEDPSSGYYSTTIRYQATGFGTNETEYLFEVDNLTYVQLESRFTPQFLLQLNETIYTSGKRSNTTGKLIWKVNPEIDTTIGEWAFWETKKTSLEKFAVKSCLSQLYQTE

B1: EBOV-548 (antibody, V domains shown)
VH: QVQVEESGGGVVQPGGSLRLSCAASGFMFSNYGMHWVRQAPGKGLEWMAFIRYDDSKKFYADSVKGRFTISRDNSKNTLYLQMNSLRAEDTALYYCAKELLQVYTSAWGEGHSYYYALDVWGLGTAVTVSS
VL: DIQMTQSPSSVSASVGDRVTITCRASQDISNWLAWYQQKPGKAPELLIYTASILQSGVSSRFSGSGSGTDFTLTISSLQPEDSATYYCQQGKSFPYTFGQGTKLEIK
binding result: binds
